Test results published in PMC5526998, “Structural analysis of the regulatory mechanism of MarR protein Rv2887 in M. tuberculosis” (Scientific Reports, 2017).

How the values were obtained:
[1] = target: T1, Rv2887 (MarR family regulator) (Mycobacterium tuberculosis H37Rv) (UniProt P9WME9); experiment: DNase I footprinting
T1 sequence: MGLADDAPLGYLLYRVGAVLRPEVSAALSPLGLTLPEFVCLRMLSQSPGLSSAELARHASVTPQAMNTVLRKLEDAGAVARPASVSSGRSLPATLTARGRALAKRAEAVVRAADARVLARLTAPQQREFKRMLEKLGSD

[2] = target: T1, Rv2887 (MarR family regulator) (Mycobacterium tuberculosis H37Rv); experiment: EMSA
[3] = target: T2, Rv2887 (crystal with DNA) (Mycobacterium tuberculosis H37Rv, UniProt P9WME9 1-139); experiment: X-ray crystal structure (2.5 A); conditions: protein: recombinant; tags: N-terminal 6xHis (pET-28a); chain copies: 4; blunt
T2 sequence: T1 sequence

CGAACTCAAGATCCAGCGATTCAGTCATGTGTTCATATATATCAACGGCCCTGATATATGTCAACACAGTTGACATTCGCGCACCCTTGGTTGCCGGCCGTCAGCTGAACGGCGGTCGTCGATCGACGAGCCGGGACAATTGACCGCCACCGCGCCACACCCGCGCCACCCAGTCGCGGTCGTCGTCGGTGACCAGATTGGACATCACCCGCACGGCGATGTTCATCAATGCGGTGGAGCGCATCGTGATGGGC (double strand) [Rv0560c upstream probe (6-FAM)]
binding [1]: binds

CGAACTCAAGATCCAGCGATTCAGTCATGTGTTCATATATATCAACGGCCCTGATATATGTCAACACAGTTGACATTCGCGCACCCTTGGTTGCCGGCCGTCAGCTGAACGGCGGTCGTCGATCGACGAGCCGGGACAATTGACCGCCACCGCGCCACACCCGCGCCACCCAGTCGCGGTCGTCGTCGGTGACCAGATTGGACATCACCCGCACGGCGATGTTCATCAATGCGGTGGAGCGCATCGTGATGGGC (double strand) [Rv0560c upstream probe (biotin)]
binding [2]: binds

B1: 30 bp Rv0560c operator duplex (dsDNA)
DNA 1: CGATCGACGACCGCCGTTCAGCTGACGTCG
DNA 2: CGACGTCAGCTGAACGGCGGTCGTCGATCG
binding result [3]: binds
